Measured values from paper PMC3496993.

Molecular target: α2β1 integrin on K562 cells transfected with the α2 integrin subunit (not stated | human (endogenous in K562)) (UniProt P17301)
Sequence of UniProt P17301 (P17301 30-1181, chain 1 of 2): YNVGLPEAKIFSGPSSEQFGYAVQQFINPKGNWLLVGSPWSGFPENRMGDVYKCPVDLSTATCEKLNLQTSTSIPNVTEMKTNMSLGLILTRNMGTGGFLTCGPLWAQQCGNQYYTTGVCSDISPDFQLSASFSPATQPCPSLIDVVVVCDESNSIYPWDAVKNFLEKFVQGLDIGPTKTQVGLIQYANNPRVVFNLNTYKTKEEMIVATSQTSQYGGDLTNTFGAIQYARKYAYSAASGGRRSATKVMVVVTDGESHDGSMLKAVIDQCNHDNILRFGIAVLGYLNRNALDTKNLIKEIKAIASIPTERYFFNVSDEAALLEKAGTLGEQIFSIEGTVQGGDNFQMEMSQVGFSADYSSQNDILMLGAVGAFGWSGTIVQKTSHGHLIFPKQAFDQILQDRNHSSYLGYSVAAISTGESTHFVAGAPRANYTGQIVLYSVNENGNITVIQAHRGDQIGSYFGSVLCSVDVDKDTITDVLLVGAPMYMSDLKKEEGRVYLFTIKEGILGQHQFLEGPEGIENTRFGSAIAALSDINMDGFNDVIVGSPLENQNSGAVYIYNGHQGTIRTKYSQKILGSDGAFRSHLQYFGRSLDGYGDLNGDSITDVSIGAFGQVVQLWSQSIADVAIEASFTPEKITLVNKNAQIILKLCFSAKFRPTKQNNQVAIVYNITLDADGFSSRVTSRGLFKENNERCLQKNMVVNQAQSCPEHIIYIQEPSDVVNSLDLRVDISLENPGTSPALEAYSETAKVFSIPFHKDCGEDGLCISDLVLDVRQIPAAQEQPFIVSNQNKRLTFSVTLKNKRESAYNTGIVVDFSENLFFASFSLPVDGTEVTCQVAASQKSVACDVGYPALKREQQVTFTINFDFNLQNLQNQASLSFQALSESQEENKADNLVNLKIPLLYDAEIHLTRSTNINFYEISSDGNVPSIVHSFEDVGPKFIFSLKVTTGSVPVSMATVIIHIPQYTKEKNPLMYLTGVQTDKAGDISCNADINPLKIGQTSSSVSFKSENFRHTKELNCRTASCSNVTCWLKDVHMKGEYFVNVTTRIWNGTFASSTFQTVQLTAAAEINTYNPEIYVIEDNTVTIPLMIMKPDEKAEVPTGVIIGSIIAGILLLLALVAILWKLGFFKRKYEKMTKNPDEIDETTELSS
Sequence of UniProt P17301 (P05556 21-798, chain 2 of 2, further chain): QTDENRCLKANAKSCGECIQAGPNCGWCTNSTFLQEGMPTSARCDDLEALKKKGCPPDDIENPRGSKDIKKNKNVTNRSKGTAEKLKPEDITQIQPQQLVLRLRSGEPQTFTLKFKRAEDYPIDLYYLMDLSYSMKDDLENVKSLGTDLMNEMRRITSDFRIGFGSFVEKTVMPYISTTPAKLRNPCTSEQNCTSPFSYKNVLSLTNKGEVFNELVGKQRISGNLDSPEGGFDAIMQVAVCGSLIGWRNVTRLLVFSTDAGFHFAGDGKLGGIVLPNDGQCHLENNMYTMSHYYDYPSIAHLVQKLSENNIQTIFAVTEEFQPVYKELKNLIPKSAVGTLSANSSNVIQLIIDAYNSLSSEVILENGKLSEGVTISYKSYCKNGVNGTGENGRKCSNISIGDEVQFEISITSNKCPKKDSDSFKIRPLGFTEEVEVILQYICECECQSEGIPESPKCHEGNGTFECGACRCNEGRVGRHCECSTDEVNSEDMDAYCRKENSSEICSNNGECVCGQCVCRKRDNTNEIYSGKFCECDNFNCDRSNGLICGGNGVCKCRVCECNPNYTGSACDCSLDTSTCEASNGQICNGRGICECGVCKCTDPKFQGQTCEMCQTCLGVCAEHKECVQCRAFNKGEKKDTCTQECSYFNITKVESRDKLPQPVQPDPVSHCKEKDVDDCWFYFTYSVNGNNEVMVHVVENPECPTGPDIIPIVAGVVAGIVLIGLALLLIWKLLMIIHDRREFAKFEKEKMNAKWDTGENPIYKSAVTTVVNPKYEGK

For “Vixapatin (VP12), C-type lectin-like protein from Vipera xantina palestinae venom (complex)”, the IC50 of inhibition of adhesion of α2K562 transfectants to immobilised collagen I (blocks collagen I with α2β1), dose-response of Vixapatin was 3.2 nM.
